To fix the notation:
B1: PYD of IFI16 (other, human, UniProt Q16666 1-88, looked up)
chain: MGKKYKNIVLLKGLEVINDYHFRMVKSLLSNDLKLNLKMREEYDKIQIADLMEEKFRGDAGLGKLIKIFEDIPTLEDLAETLKKEKLK
notes: domain: PYD; also called IFI16-PYD; IF116 PYD
B2: PYD of PYHIN1 (other, human, UniProt Q6K0P9 1-88, looked up)
chain: MANNYKKIVLLKGLEVINDYHFRIVKSLLSNDLKLNPKMKEEYDKIQIADLMEEKFPGDAGLGKLIEFFKEIPTLGDLAETLKREKLK
notes: domain: PYD; also called IFIX-PYD
B3: PYD of MNDA (other, human, UniProt P41218 1-88, looked up)
chain: MVNEYKKILLLKGFELMDDYHFTSIKSLLAYDLGLTTKMQEEYNRIKITDLMEKKFQGVACLDKLIELAKDMPSLKNLVNNLRKEKSK
notes: domain: PYD; also called MNDA-PYD
B4: PYD of AIM2 (other, human, UniProt O14862 1-87, looked up)
chain: MESKYKEILLLTGLDNITDEELDRFKFFLSDEFNIATGKLHTANRIQVATLMIQNAGAVSAVMKTIRIFQKLNYMLLAKRLQEEKEK
notes: domain: PYD; Made by in vitro transcription/translation for the GST pull-down; GFP- or RFP-tagged in HEK293 for the antibody specificity blot; also called AIM2-PYD
B5: POP3 (other)
chain: MESKYKEILLLTSLDNITDEELDRFKCFLPDEFNIATGKLHTLNSTSSQLDLKRWHGVCSEEDRIFQKLNYMLVAKCLREEQETGICGSPSSARSVSQSRLGLSFHGISGNAC
notes: POP3 as expressed in cells (HEK293, THP-1, hMΦ); in some microscopy endogenous POP3; also called GFP-POP3; PYRIN domain-only protein 3; not shown: N-terminal tag; GFP-POP3 is named for the co-IP, constructs with myc, HA, Flag, GFP or RFP were made
B6: GST-POP3 (other)
chain: B5 chain
notes: also called recombinant POP3; immobilized GST-POP3; not shown: glutathione S-transferase (GST) tag encoded by pGEX-4T1
B7: GST-POP1 (other)
chain: MGTKREAILKVLENLTPEELKKFKMKLGTVPLREGFERIPRGALGQLDIVDLTDKLVASYYEDYAAELVVAVLRDMRMLEEAARLQRAA
notes: also called immobilized GST-POP1; not shown: glutathione S-transferase (GST) tag encoded by pGEX-4T1

One data set has as its target T1, GST control (UniProt P08515 1-218 = GST).
T1 construct: Negative control of the GST pull-downs
Briefly: GST pull-down (FIG. 4a). As for the experimental part: (§1) For GST pull down experiments, POP3 was cloned into pGEX-4T1 and affinity purified as a GST fusion protein from E. coli BL21. Proteins were either prepared by in vitro transcription/translation (TNT Quick Coupled Transcription/Translation, Promega), or TCL were prepared from […] (16 hrs) BMDM or THP-1 cells by lysis (50 mM Hepes pH 7.4, 120 mM NaCl, 10% Glycerol, 2 mM EDTA, 0.5% Triton X-100, supplemented with protease inhibitors) as a source of endogenous proteins, and cleared lysates were incubated with immobilized GST-POP3 or GST control for 16 hrs at 4° C., followed by extensive washing with lysis buffer and analysis as above. For ASC cross-linking, 4×10⁶ BMDM were seeded in 60 mm plates and subjected to cross-linking as described 55. Briefly, cells were transfected with 1 μg/ml poly (dA:dT) for 5 hrs, supernatants were removed, cells rinsed with ice-cold PBS and lysed (20 mM Hepes pH 7.4, 100 mM NaCl, 1% NP-40, 1 mM sodium orthovanadate, supplemented with protease inhibitors) and further lysed by shearing. Cleared lysates were stored for immunoblot analysis and the insoluble pellets were resuspended in 500 μl PBS, supplemented with 2 mM disuccinimydyl suberate (DSS, Pierce) and incubated with rotation at room temperature for 30 min. Samples were centrifuged at 5,000 rpm for 10 min at 4° C. and the cross-linked pellets were resuspended in 50 μl Laemmli sample buffer and analyzed by immunoblot. Human lung tissue was embedded in paraffin, cut into 3 μm sections, mounted, deparaffinized and immunostained with mouse monoclonal CD68 (Dako) and rabbit polyclonal POP3 and peroxidase (HRP)/DAB+ and alkaline phosphatase (AP)/Fast Red enzyme/chromogen combinations (Dako) and specific isotype controls (Dako) and haemotoxylin counterstaining of nuclei.
(§2) GST-POP3, but not GST control, bound to the PYD of AIM2 and IF116.

The target of the data set “GST-POP3” is B6. In words: GST pull-down (FIG. 4a). As for the experimental part: as §1, §2
The data set “co-IP in HEK293 cells” concerns the molecule itself. Briefly: co-IP in HEK293 cells.
In data set [1] the target is T2, AIM2 (human, UniProt O14862 1-343).
T2 construct: Endogenous in THP-1 lysates and hMΦ; N-terminally tagged (RFP, myc) where transfected into HEK293; also called endogenous AIM2; RFP-AIM2
T2 sequence (looked up): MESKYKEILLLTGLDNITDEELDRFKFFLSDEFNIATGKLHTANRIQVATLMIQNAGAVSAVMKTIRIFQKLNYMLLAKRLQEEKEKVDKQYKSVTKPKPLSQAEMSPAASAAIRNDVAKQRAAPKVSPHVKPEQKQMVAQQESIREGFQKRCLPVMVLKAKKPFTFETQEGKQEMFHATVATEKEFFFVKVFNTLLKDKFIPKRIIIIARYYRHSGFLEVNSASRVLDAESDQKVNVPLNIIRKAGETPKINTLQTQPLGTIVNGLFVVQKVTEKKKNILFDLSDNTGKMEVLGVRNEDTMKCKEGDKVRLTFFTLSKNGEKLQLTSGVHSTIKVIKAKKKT
In words: figure title (pull-down, co-IP, co-localisation).

The target in another data set is T3, mouse ASC (mouse, UniProt Q9EPB4 1-193).
T3 construct: also called mASC; endogenous ASC in BMDM
T3 sequence (looked up): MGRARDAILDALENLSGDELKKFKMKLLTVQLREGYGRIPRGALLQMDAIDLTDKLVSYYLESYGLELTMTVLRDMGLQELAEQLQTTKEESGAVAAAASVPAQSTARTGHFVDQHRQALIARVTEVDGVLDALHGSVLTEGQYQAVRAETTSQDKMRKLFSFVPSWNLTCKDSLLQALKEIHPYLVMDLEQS
Briefly: GST pull-down from BMDM lysates (FIG. 11a). As for the experimental part:
For GST pull down experiments, POP3 was cloned into pGEX-4T1 and affinity purified as a GST fusion protein from E. coli BL21. Proteins were either prepared by in vitro transcription/translation (TNT Quick Coupled Transcription/Translation, Promega), or TCL were prepared from […] (16 hrs) BMDM or THP-1 cells by lysis (50 mM Hepes pH 7.4, 120 mM NaCl, 10% Glycerol, 2 mM EDTA, 0.5% Triton X-100, supplemented with protease inhibitors) as a source of endogenous proteins, and cleared lysates were incubated with immobilized GST-POP3 or GST control for 16 hrs at 4° C., followed by extensive washing with lysis buffer and analysis as above. For ASC cross-linking, 4×10⁶ BMDM were seeded in 60 mm plates and subjected to cross-linking as described 55. […] Samples were centrifuged at 5,000 rpm for 10 min at 4° C. and the cross-linked pellets were resuspended in 50 μl Laemmli sample buffer and analyzed by immunoblot. […]
The PYDs of human and mouse ALRs are well conserved. […] To delineate the mechanism by which POP3 inhibits ALR inflammasomes in mouse macrophages, ASC oligomerization was analyzed in response to AIM2 inflammasome stimulation with poly(dA:dT) in WT and CD68-POP3 TG BMDM as a readout for AIM2 inflammasome formation (Fernandes-Alnemri et al. Nature.

A further data set has as its target T4, AIM2 from BMDM (mouse, UniProt Q91VJ1 1-354).
T4 construct: also called mAIM2; mouse AIM2
T4 sequence (looked up): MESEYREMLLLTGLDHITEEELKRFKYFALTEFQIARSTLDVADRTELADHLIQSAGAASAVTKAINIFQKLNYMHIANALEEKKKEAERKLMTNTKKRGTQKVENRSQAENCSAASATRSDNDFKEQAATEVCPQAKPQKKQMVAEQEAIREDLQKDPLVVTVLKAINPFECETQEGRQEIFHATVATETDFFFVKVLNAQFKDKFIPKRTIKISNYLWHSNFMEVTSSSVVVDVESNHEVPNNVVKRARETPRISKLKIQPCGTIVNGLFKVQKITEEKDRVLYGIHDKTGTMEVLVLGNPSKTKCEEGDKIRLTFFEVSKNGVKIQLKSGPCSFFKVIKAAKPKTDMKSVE
In words: GST pull-down from BMDM lysates (FIG. 22c). Here is the method:
(§3) POP1 was expressed from pGEX-4T1 and affinity purified as a GST fusion protein from E. coli BL21 (Stehlik et al. Biochem. J 373, 101-113 (2003); herein incorporated by reference in its entirety). Protein lysates were prepared from LPS-treated (16 h) BMDM or THP-1 cells by lysis (50 mM Hepes pH 7.4, 120 mM NaCl, 10% Glycerol, 2 mM EDTA, 0.5% Triton X-100, supplemented with protease inhibitors), and cleared lysates were incubated with immobilized GST-POP1 or GST control for 16 h at 4° C., followed by extensive washing with lysis buffer and analysis as above.

The target in a further data set is T5, NLRP3 from BMDM (mouse, UniProt Q8R4B8 1-1033).
T5 construct: also called mNLRP3; mouse NLRP3
T5 sequence (Q8R4B8 whole entry): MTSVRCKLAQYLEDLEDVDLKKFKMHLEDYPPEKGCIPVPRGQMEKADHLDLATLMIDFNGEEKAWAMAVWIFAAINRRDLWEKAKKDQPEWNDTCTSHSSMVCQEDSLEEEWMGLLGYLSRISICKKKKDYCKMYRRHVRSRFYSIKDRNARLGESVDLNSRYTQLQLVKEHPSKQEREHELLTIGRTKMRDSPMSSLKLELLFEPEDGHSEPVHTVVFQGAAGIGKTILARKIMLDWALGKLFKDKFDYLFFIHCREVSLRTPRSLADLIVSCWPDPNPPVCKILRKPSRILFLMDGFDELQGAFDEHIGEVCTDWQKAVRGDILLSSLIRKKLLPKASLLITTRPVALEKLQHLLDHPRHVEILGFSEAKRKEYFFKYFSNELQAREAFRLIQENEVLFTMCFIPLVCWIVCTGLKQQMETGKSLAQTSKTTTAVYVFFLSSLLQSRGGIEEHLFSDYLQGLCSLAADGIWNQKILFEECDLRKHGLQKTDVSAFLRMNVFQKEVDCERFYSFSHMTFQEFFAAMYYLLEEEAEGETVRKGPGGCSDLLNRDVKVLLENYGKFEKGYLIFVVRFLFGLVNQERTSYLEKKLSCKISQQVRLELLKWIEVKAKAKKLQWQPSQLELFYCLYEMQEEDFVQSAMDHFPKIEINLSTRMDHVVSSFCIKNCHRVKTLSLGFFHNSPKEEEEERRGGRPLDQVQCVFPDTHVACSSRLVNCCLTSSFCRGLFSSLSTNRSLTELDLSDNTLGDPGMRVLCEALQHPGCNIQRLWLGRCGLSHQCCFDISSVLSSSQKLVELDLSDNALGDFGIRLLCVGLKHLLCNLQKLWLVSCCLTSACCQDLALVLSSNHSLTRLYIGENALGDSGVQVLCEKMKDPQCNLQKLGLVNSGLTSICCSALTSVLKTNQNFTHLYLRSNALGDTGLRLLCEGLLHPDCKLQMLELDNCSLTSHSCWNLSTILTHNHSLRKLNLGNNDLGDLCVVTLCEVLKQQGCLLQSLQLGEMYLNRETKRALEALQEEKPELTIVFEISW
In words: GST pull-down from BMDM lysates (FIG. 22c). As for the experimental part: as §3

The target of another data set is T6, NLRP3 (human, UniProt Q96P20 1-1036).
T6 construct: Endogenous in THP-1 lysates; MYC-tagged where transfected into HEK293; also called MYC-NLRP3; endogenous NLRP3
T6 sequence (Q96P20 whole entry): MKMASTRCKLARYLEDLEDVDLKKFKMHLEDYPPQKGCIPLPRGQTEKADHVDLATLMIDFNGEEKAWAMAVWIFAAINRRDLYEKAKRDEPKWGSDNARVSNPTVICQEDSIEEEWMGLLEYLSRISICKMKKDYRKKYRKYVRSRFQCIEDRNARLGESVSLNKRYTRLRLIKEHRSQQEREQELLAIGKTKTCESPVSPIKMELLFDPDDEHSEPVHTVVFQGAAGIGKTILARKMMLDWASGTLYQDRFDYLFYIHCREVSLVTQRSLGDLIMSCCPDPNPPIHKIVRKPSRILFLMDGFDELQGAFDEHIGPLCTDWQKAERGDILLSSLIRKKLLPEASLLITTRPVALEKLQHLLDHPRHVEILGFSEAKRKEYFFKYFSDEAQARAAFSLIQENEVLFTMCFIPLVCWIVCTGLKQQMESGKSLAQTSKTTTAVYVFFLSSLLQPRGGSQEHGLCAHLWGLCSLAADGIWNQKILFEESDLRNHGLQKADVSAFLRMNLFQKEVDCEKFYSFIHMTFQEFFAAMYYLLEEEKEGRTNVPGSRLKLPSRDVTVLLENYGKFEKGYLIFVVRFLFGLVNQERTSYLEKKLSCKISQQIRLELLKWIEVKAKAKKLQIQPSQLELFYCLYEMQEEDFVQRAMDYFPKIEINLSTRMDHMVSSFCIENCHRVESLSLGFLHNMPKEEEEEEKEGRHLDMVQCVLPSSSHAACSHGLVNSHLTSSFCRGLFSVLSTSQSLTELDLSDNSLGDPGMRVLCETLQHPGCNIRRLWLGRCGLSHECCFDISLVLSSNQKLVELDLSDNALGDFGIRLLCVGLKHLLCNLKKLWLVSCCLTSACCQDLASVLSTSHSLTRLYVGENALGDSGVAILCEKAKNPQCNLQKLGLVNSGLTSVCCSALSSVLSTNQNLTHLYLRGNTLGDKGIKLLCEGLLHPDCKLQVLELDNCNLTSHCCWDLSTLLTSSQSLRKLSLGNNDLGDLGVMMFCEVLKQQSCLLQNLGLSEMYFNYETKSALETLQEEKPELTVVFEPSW
In words: GST pull-down from THP-1 lysates (FIG. 18a). Here is the method: as §3
(§4) Recruitment of ASC to upstream sensors is essential for inflammasome activation. POP1 specifically bound to endogenous ASC, but not to the PYD-containing PRRs NLRP3 and AIM2 in LPS-primed THP-1 cells (FIG. 18a), emphasizing the selectivity of these interactions. […] Binding of ASC to NLRP3 induces ASC^PYD nucleation, which provides the oligomeric platform essential for caspase-1 activation (Lu et al. Cell 156, 1193-206 (2014); Cai et al. Cell 156, 1207-22 (2014); herein incorporated by reference in their entireties). […] POP1 binding to the ASC^PYD could also directly prevent ASC^PYD self-polymerization.

In data set [2] the target is T2, AIM2. Briefly: GST pull-down from THP-1 lysates (FIG. 18a). Here is the method:
as §3, §4

The results in this text go back to US20160354437A1 (NORTHWESTERN UNIVERSITY, published 2016).

T1 sequence (P08515 whole entry): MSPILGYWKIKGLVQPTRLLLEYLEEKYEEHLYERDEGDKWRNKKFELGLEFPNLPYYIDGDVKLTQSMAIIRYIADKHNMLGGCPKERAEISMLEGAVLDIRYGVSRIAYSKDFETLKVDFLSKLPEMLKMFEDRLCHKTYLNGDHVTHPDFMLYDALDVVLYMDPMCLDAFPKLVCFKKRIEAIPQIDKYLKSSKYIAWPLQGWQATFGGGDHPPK

Regarding B1, the binding result with GST control is recorded as “no binding”.

B2: the binding result with GST-POP3 is given as “no binding”.

For B3, the binding result in the data set with GST-POP3 was “no binding”.

In the case of B4, the binding result with GST control is “no binding”.

For the molecule B5, the binding result in the data set “co-IP in HEK293 cells” and with AIM2 [1] was “binds” throughout.

On to B6, for which the binding result with mouse ASC is listed as “no binding”.

With B7, the binding result in the data set with AIM2 from BMDM, with NLRP3 from BMDM, with NLRP3 and with AIM2 [2] was “no binding” in each case.
